Experimental data as given in the supplement of paper PMC7125110.
± gives the standard error. Variants at the floor of the assay were thinned out.

B1: glmS ribozyme (parent)
chain: AUAAAAGCGCCAGAACUACAGAAAUGUAGUUGACGAGGAGGAGGUUUAUCGAAUUUUCGGCGGAUGCCUCCAAA

What was measured:
Conditions in all cases: with glucosamine-6-phosphate
glucosamine-6-phosphate [1] = variants of: B1; experiment: self-cleavage kobs at 40 uM GlcN6P; higher = faster cleavage; RNA array
In short: (§1)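 Weighted Michaelis–Menten fits across concentrations supplied kcat and KM, based on kobs from one- or two-exponential decay fits to normalised per-tile medians. The data came from barcoded ribozyme variants transcribed in situ by E. coli RNA polymerase on sequenced MiSeq chips and tracked at 37 °C by a hybridised Cy3 probe. Glucosamine-6-phosphate (40 μM to 10 mM) in HEPES/KCl/Mg(OAc)2 buffer was flowed in.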

glucosamine-6-phosphate [2] = variants of: B1; experiment: self-cleavage kobs at 640 uM GlcN6P; higher = faster cleavage; RNA array
In short: as §1

glucosamine-6-phosphate [3] = variants of: B1; experiment: self-cleavage kobs at 10000 uM GlcN6P; higher = faster cleavage; RNA array
In short: as §1

glucosamine-6-phosphate [4] = variants of: B1; experiment: self-cleavage kobs at 160 uM GlcN6P; higher = faster cleavage; RNA array
In short: as §1

glucosamine-6-phosphate [5] = variants of: B1; experiment: self-cleavage kobs at 2500 uM GlcN6P; higher = faster cleavage; RNA array
In short: as §1

Row | Variant | self-cleavage kobs at 40 uM GlcN6P (glucosamine-6-phosphate [1]) [s⁻¹] | self-cleavage kobs at 640 uM GlcN6P (glucosamine-6-phosphate [2]) [s⁻¹] | self-cleavage kobs at 10000 uM GlcN6P (glucosamine-6-phosphate [3]) [s⁻¹] | self-cleavage kobs at 160 uM GlcN6P (glucosamine-6-phosphate [4]) [s⁻¹] | self-cleavage kobs at 2500 uM GlcN6P (glucosamine-6-phosphate [5]) [s⁻¹]
1 | A6U G7A G44U A52U U55C A64U | < 1e-05 | < 1e-05 | < 1e-05 |  | 
2 | A6U A33C | < 1e-05 | < 1e-05 |  | < 1e-05 | < 1e-05
3 | A6G G38A C50G C71A | 9.73e-05 ± 2.8e-05 |  |  |  | 
4 | A6G G35U A52C C70G | < 1e-05 |  |  |  | 
5 | A6U C8G G38C G43A | < 1e-05 |  | < 1e-05 |  | 
6 | G7A G51U | < 1e-05 | < 1e-05 |  | < 1e-05 | < 1e-05
7 | A6U A15U A36G A52C | < 1e-05 |  |  |  | < 1e-05
8 | A6U U46G C58A | < 1e-05 |  |  |  | 
9 | A6U C16U G32C A42U U57G | < 1e-05 |  |  |  | 
10 | A6U G29U G38A C58A | < 1e-05 |  |  |  | 
11 | G7A G41A | < 1e-05 | < 1e-05 | < 1e-05 | < 1e-05 | < 1e-05
12 | A6G G35U | < 1e-05 | < 1e-05 | < 1e-05 | < 1e-05 | < 1e-05
13 | A6G G35A | < 1e-05 | < 1e-05 | < 1e-05 | < 1e-05 | < 1e-05
14 | A6U A14U G35C A39U U55A C58A | < 1e-05 |  | < 1e-05 |  | < 1e-05
15 | A6G G35A C67U U69A | < 1e-05 | < 1e-05 | < 1e-05 | < 1e-05 | < 1e-05
16 | A6G G51A | < 1e-05 | < 1e-05 | < 1e-05 | < 1e-05 | < 1e-05
17 | G7A G66U | < 1e-05 |  | < 1e-05 | < 1e-05 | < 1e-05
18 | A6G G60C | < 1e-05 | < 1e-05 |  | < 1e-05 | < 1e-05
19 | A6U C10A G41C U46A C70A | < 1e-05 |  | < 1e-05 |  | < 1e-05
20 | A6U G7U A36G U49C C58G | < 1e-05 | < 1e-05 | < 1e-05 |  | < 1e-05
21 | G7A G32A C58A | < 1e-05 |  | < 1e-05 |  | 
22 | A6U G38A G40U G51C | < 1e-05 |  |  |  | 
23 | G7A A52G | < 1e-05 | < 1e-05 | < 1e-05 |  | 
24 | G7A C8G G9C C10G A12C G13A A14G C16A U17C U31A | 0.000115 ± 4.2e-05 |  | 0.00555 ± 0.0017 |  | 

Row | Variant | self-cleavage kobs at 40 uM GlcN6P (glucosamine-6-phosphate [1]) [s⁻¹] | self-cleavage kobs at 640 uM GlcN6P (glucosamine-6-phosphate [2]) [s⁻¹] | self-cleavage kobs at 10000 uM GlcN6P (glucosamine-6-phosphate [3]) [s⁻¹] | self-cleavage kobs at 160 uM GlcN6P (glucosamine-6-phosphate [4]) [s⁻¹] | self-cleavage kobs at 2500 uM GlcN6P (glucosamine-6-phosphate [5]) [s⁻¹]
25 | A6U C8U | < 1e-05 | < 1e-05 | < 1e-05 | < 1e-05 | < 1e-05
26 | A6U G13C C16A U45G | < 1e-05 |  |  |  | 
27 | G7A G13U A14C A15U G35A U55C A64G C71A | < 1e-05 |  | < 1e-05 |  | 
28 | A6U G35C G51C U65G | < 1e-05 |  |  |  | 
29 | G7A A48C | < 1e-05 | < 1e-05 | < 1e-05 | < 1e-05 | 
30 | A6G U45A G60C | < 1e-05 |  | < 1e-05 |  | 
31 | A6G U65C | < 1e-05 | < 1e-05 | < 1e-05 | < 1e-05 | < 1e-05
32 | G7A A53C | < 1e-05 | < 1e-05 |  | < 1e-05 | < 1e-05
33 | A6U G7C C8G G38U | < 1e-05 | < 1e-05 |  |  | 
34 | A6G G35A A39C G62C U65G C67A | < 1e-05 |  |  |  | 
35 | G7A C50G | 4.24e-05 ± 1.5e-05 |  |  | 6.67e-05 ± 2e-05 | 
36 | A6U U31C C50G | 7.08e-05 ± 1.6e-05 |  | 3.4e-05 ± 1.4e-05 |  | 
37 | A6U A33G G41A A64U | < 1e-05 | < 1e-05 |  | < 1e-05 | < 1e-05
38 | G7A G35C G59A C67G | < 1e-05 | < 1e-05 |  | < 1e-05 | < 1e-05
39 | A6U G38A | < 1e-05 |  |  |  | 
40 | A6G G51U U57C | < 1e-05 |  | < 1e-05 |  | 
41 | A6U G59C C71G | < 1e-05 | < 1e-05 | < 1e-05 | < 1e-05 | < 1e-05
42 | A6U G38U C71A | < 1e-05 |  |  |  | 
43 | A6U A52C | < 1e-05 | < 1e-05 | < 1e-05 | < 1e-05 | < 1e-05
44 | G7A G32A U45A A52G U65G | < 1e-05 |  |  |  | 
45 | G7A G37C A42U | < 1e-05 | < 1e-05 | < 1e-05 |  | < 1e-05
46 | G7A G41A U45C U49A | < 1e-05 |  |  |  | 
47 | A6U C50A | < 1e-05 | < 1e-05 |  | < 1e-05 | 
48 | G7A G9U C16A G37U U65C | < 1e-05 |  |  |  | 

Row | Variant | self-cleavage kobs at 40 uM GlcN6P (glucosamine-6-phosphate [1]) [s⁻¹] | self-cleavage kobs at 640 uM GlcN6P (glucosamine-6-phosphate [2]) [s⁻¹] | self-cleavage kobs at 10000 uM GlcN6P (glucosamine-6-phosphate [3]) [s⁻¹] | self-cleavage kobs at 160 uM GlcN6P (glucosamine-6-phosphate [4]) [s⁻¹] | self-cleavage kobs at 2500 uM GlcN6P (glucosamine-6-phosphate [5]) [s⁻¹]
49 | A6U A12G C16U G38A U54A C68A | 8.86e-05 ± 3.6e-05 | 0.000335 ± 0.0001 | 8.53e-05 ± 1.8e-05 |  | 0.000395 ± 0.00011
50 | A6U C10A G40A U46G | < 1e-05 |  | < 1e-05 |  | 
51 | A6U C34G | < 1e-05 |  | < 1e-05 | < 1e-05 | < 1e-05
52 | A6G G62U | < 1e-05 | < 1e-05 | < 1e-05 | < 1e-05 | < 1e-05
53 | A6G G32U C34U | < 1e-05 | < 1e-05 | < 1e-05 |  | < 1e-05
54 | G7A G13U | < 1e-05 | < 1e-05 |  | < 1e-05 | 
55 | G7A G13A | < 1e-05 | < 1e-05 | < 1e-05 | < 1e-05 | 
56 | A6U C16U G38A | < 1e-05 | < 1e-05 |  |  | < 1e-05
57 | G7A G13U U69G C71A | 0.00031 ± 7.3e-05 |  | 0.000516 ± 0.00016 |  | 
58 | A6G U49G | < 1e-05 |  |  |  | < 1e-05
59 | A6U A36G | < 1e-05 | < 1e-05 | < 1e-05 | < 1e-05 | 
60 | A6U C10A C11G A12C U54C | < 1e-05 |  | < 1e-05 |  | 
61 | A6G G35U A42G U46G G66U | < 1e-05 |  |  |  | 
62 | A6U C11U G32U | < 1e-05 |  | < 1e-05 |  | 
63 | A6U G37C G41C U47C A48U G59U | < 1e-05 |  | < 1e-05 |  | 
64 | A6U G41C | < 1e-05 |  | < 1e-05 | < 1e-05 | < 1e-05
65 | A6U G35C G62A | < 1e-05 | < 1e-05 | < 1e-05 | < 1e-05 | < 1e-05
66 | A6U G35C U54A | < 1e-05 |  |  |  | 
67 | A6U U55C C71A | < 1e-05 |  |  |  | 
68 | A6G G43A | < 1e-05 | < 1e-05 | < 1e-05 | < 1e-05 | < 1e-05
69 | G7A G32C | < 1e-05 | < 1e-05 | < 1e-05 | < 1e-05 | < 1e-05
70 | A6G G44U G62U G63A U69A | < 1e-05 | < 1e-05 | < 1e-05 | < 1e-05 | < 1e-05
71 | A6G U30C | < 1e-05 |  |  | < 1e-05 | 
72 | A6U A48U C70U | < 1e-05 |  |  |  | 

Row | Variant | self-cleavage kobs at 40 uM GlcN6P (glucosamine-6-phosphate [1]) [s⁻¹] | self-cleavage kobs at 640 uM GlcN6P (glucosamine-6-phosphate [2]) [s⁻¹] | self-cleavage kobs at 10000 uM GlcN6P (glucosamine-6-phosphate [3]) [s⁻¹] | self-cleavage kobs at 160 uM GlcN6P (glucosamine-6-phosphate [4]) [s⁻¹] | self-cleavage kobs at 2500 uM GlcN6P (glucosamine-6-phosphate [5]) [s⁻¹]
73 | G7A G32A G51A G62C C68A | < 1e-05 |  |  | < 1e-05 | 
74 | A6U A33U A36G G38C U46G C61U | < 1e-05 |  |  |  | 
75 | A6U G51U | < 1e-05 | < 1e-05 | < 1e-05 | < 1e-05 | < 1e-05
76 | A6U A48G G51C G59C | < 1e-05 |  | < 1e-05 |  | 
77 | A6U G40C | < 1e-05 |  |  |  | 
78 | G7A A48U U49G | < 1e-05 |  | < 1e-05 |  | 
79 | A6G U31A U46G C68G | < 1e-05 |  | < 1e-05 |  | 
80 | A6U C58U | < 1e-05 | < 1e-05 | < 1e-05 | < 1e-05 | < 1e-05
81 | A6G G40U A52G U65G | < 1e-05 |  | < 1e-05 |  | 
82 | G7A A52U G63C | < 1e-05 | < 1e-05 |  | < 1e-05 | < 1e-05
83 | A6G G32U U46G | < 1e-05 |  | < 1e-05 |  | 
84 | A6U A33U A64G | < 1e-05 |  |  |  | < 1e-05
85 | A6G G32U G37C A64U C68G C70G | < 1e-05 |  |  |  | 
86 | A6G G32C | < 1e-05 | < 1e-05 | < 1e-05 | < 1e-05 | 
87 | G7A A12U | < 1e-05 |  | 7.91e-05 ± 2e-05 | < 1e-05 | 2.22e-05 ± 8.3e-06
88 | G7A C67U | < 1e-05 | < 1e-05 |  | < 1e-05 | 
89 | A6U A12U G32U G60U | < 1e-05 |  |  |  | 
90 | A6U G9C | < 1e-05 | < 1e-05 | < 1e-05 |  | 
91 | A6G U31C G41U A52U | < 1e-05 |  | < 1e-05 |  | 
92 | G7A G29C | < 1e-05 |  |  |  | < 1e-05
93 | G7A A33C U57C G63A | < 1e-05 |  |  |  | 
94 | A6U G38U A48U A52G C68A U69G | 7.26e-05 ± 3.3e-05 |  | 8.71e-05 ± 2.3e-05 |  | 
